Measurements: the RNAGym collection of RNA variant scans (doi:10.7554/elife.80360)

B1: Hammerhead Ribozyme (parent)
chain: ACCGGAUGUGCUUUCCGGUCUGAUGAGUCCGUGAGGACGAAACAG

Variants of: B1
Experiment: self-cleavage, relative activity (ratio to wild type); higher = more cleavage; co-transcriptional

Variant | self-cleavage
ACCGGAUGUGCUUUCCGCUCUGAUGAGUACGUGAGGACGAAACAG [G18C C29A] | 0.374
ACCGGAUGUGCUUUCCGCUCUGAUGAGUGCGUGAGGACGAAACAG [G18C C29G] | 0.302
ACCGGAUGUGCUUUCCGCUCUGAUGAGUUCGUGAGGACGAAACAG [G18C C29U] | 0.506
ACCGGAUGUGCUUUCCGAUAUGAUGAGUCCGUGAGGACGAAACAG [G18A C20A] | 0.326
ACCGGAUGUGCUUUCCGAUUUGAUGAGUCCGUGAGGACGAAACAG [G18A C20U] | 0.312
ACCGGAUGUGCUUUCCGAUGUGAUGAGUCCGUGAGGACGAAACAG [G18A C20G] | 0.367
ACCGGAUGUGCUUUCCGAUCUGAUGAGUCCGCGAGGACGAAACAG [G18A U32C] | 0.731
ACCGGAUGUGCUUUCCGAUCUGAUGAGUCCGGGAGGACGAAACAG [G18A U32G] | 0.744
ACCGGAUGUGCUUUCCGAUCUGAUGAGUCCGAGAGGACGAAACAG [G18A U32A] | 0.778
ACCGGAUGUGCUUUCCGAUCUGAUGAGUACGUGAGGACGAAACAG [G18A C29A] | 0.44
ACCGGAUGUGCUUUCCGAUCUGAUGAGUGCGUGAGGACGAAACAG [G18A C29G] | 0.537
ACCGGAUGUGCUUUCCGAUCUGAUGAGUUCGUGAGGACGAAACAG [G18A C29U] | 0.574
ACCGGAUGUGCUUUCCGCUCUGAUGAGUCCGUGAGGACGACACAG [G18C A41C] | 0.303
ACCGGAUGUGCUUUCCGCUCUGAUGAGUCCGUGAGGACGAUACAG [G18C A41U] | 0.36
ACCGGAUGUGCUUUCCGCUCUGAUGAGUCCGUGAGGACGAGACAG [G18C A41G] | 0.313
ACCGGAUGUGCUUUCCGAUCUGAGGAGUCCGUGAGGACGAAACAG [G18A U24G] | 0.678
ACCGGAUGUGCUUUCCGAUCUGACGAGUCCGUGAGGACGAAACAG [G18A U24C] | 0.757
ACCGGAUGUGCUUUCCGAUCUGAAGAGUCCGUGAGGACGAAACAG [G18A U24A] | 0.748
ACCGGAUGUGCUUUCCGCUCUGAUGAGUCCGUGUGGACGAAACAG [G18C A34U] | 0.409

Variant | self-cleavage
ACCGGAUGUGCUUUCCGCUCUGAUGAGUCCGUGCGGACGAAACAG [G18C A34C] | 0.36
ACCGGAUGUGCUUUCCGCUCUGAUGAGUCCGUGGGGACGAAACAG [G18C A34G] | 0.422
ACCGGAUGUGCUUUCCGAUCUGAUGAGUCCGUGAGGACGAAAAAG [G18A C43A] | 0.299
ACCGGAUGUGCUUUCCGAUCUGAUGAGUCCGUGAGGACGAAAUAG [G18A C43U] | 0.285
ACCGGAUGUGCUUUCCGAUCUGAUGAGUCCGUGAGGACGAAAGAG [G18A C43G] | 0.28
ACCGGAUGUGCUUUCCGCUCUGAUGAUUCCGUGAGGACGAAACAG [G18C G27U] | 0.298
ACCGGAUGUGCUUUCCGCUCUGAUGACUCCGUGAGGACGAAACAG [G18C G27C] | 0.402
ACCGGAUGUGCUUUCCGCUCUGAUGAAUCCGUGAGGACGAAACAG [G18C G27A] | 0.416
ACCGGAUGUGCUUUCCGCUCUGCUGAGUCCGUGAGGACGAAACAG [G18C A23C] | 0.298
ACCGGAUGUGCUUUCCGCUCUGGUGAGUCCGUGAGGACGAAACAG [G18C A23G] | 0.379
ACCGGAUGUGCUUUCCGCUCUGUUGAGUCCGUGAGGACGAAACAG [G18C A23U] | 0.32
ACCGGAUGUGCUUUCCGCUCUGAUGCGUCCGUGAGGACGAAACAG [G18C A26C] | 0.354
ACCGGAUGUGCUUUCCGCUCUGAUGUGUCCGUGAGGACGAAACAG [G18C A26U] | 0.334
ACCGGAUGUGCUUUCCGCUCUGAUGGGUCCGUGAGGACGAAACAG [G18C A26G] | 0.319
ACCGGAUGUGCUUUCCGCUCUUAUGAGUCCGUGAGGACGAAACAG [G18C G22U] | 0.29
ACCGGAUGUGCUUUCCGCUCUCAUGAGUCCGUGAGGACGAAACAG [G18C G22C] | 0.333
ACCGGAUGUGCUUUCCGCUCUAAUGAGUCCGUGAGGACGAAACAG [G18C G22A] | 0.342
ACCGGAUGUGCUUUCCGCUCUGAUGAGUCCGUGAGGACGAAACAG [G18C] | 0.62
ACCGGAUGUGCUUUCCGCUCUGAUGAGUCUGUGAGGACGAAACAG [G18C C30U] | 0.606

Variant | self-cleavage
ACCGGAUGUGCUUUCCGCUCUGAUGAGUCGGUGAGGACGAAACAG [G18C C30G] | 0.372
ACCGGAUGUGCUUUCCGCUCUGAUGAGUCAGUGAGGACGAAACAG [G18C C30A] | 0.451
ACCGGAUGUGCUUUCCGCUCUGAUGAGUCCGUGAGGACGGAACAG [G18C A40G] | 0.369
ACCGGAUGUGCUUUCCGCUCUGAUGAGUCCGUGAGGACGUAACAG [G18C A40U] | 0.339
ACCGGAUGUGCUUUCCGCUCUGAUGAGUCCGUGAGGACGCAACAG [G18C A40C] | 0.389
ACCGGAUGUGCUUUCCGAUCUGAUGAGUCCGUGAGGACGAAUCAG [G18A A42U] | 0.338
ACCGGAUGUGCUUUCCGAUCUGAUGAGUCCGUGAGGACGAAGCAG [G18A A42G] | 0.347
ACCGGAUGUGCUUUCCGAUCUGAUGAGUCCGUGAGGACGAACCAG [G18A A42C] | 0.376
ACCGGAUGUGCUUUCCGCUCUGAUGAGUCCGUGAGGACGAAACUG [G18C A44U] | 0.354
ACCGGAUGUGCUUUCCGCUCUGAUGAGUCCGUGAGGACGAAACGG [G18C A44G] | 0.643
ACCGGAUGUGCUUUCCGCUCUGAUGAGUCCGUGAGGACGAAACCG [G18C A44C] | 0.435
ACCGGAUGUGCUUUCCGAUCUGAUGAGUCCCUGAGGACGAAACAG [G18A G31C] | 0.74
ACCGGAUGUGCUUUCCGAUCUGAUGAGUCCUUGAGGACGAAACAG [G18A G31U] | 0.938
ACCGGAUGUGCUUUCCGAUCUGAUGAGUCCAUGAGGACGAAACAG [G18A G31A] | 1.05
ACCGGAUGUGCUUUCCGAUCUGAUGAGUCCGUCAGGACGAAACAG [G18A G33C] | 0.635
ACCGGAUGUGCUUUCCGAUCUGAUGAGUCCGUUAGGACGAAACAG [G18A G33U] | 0.726
ACCGGAUGUGCUUUCCGAUCUGAUGAGUCCGUAAGGACGAAACAG [G18A G33A] | 0.873
ACCGGAUGUGCUUUCCGCUCUGAUUAGUCCGUGAGGACGAAACAG [G18C G25U] | 0.284
ACCGGAUGUGCUUUCCGCUCUGAUAAGUCCGUGAGGACGAAACAG [G18C G25A] | 0.328
